A short description of this series: cycloheximide chase, Western blot, Hepa1A. Particulars: glycan lost; control: wild type. For orientation: A western blot detects proteins with antibodies after separation by electrophoresis.

B1: ERManI: ERManIO-def (protein)
parent chain: MAACEGRRSGALGSSQSDFLTPPVGGAPWAVATTVVMYPPPPPPPHRDFISVTLSFGENYDNSKSWRRRSCWRKWKQLSRLQRNMILFLLAFLLFCGLLFYINLADHWKALAFRLEEEQKMRPEIAGLKPANPPVLPAPQKADTDPENLPEISSQKTQRHIQRGPPHLQIRPPSQDLKDGTQEEATKRQEAPVDPRPEGDPQRTVISWRGAVIEPEQGTELPSRRAEVPTKPPLPPARTQGTPVHLNYRQKGVIDVFLHAWKGYRKFAWGHDELKPVSRSFSEWFGLGLTLIDALDTMWILGLRKEFEEARKWVSKKLHFEKDVDVNLFESTIRILGGLLSAYHLSGDSLFLRKAEDFGNRLMPAFRTPSKIPYSDVNIGTGVAHPPRWTSDSTVAEVTSIQLEFRELSRLTGDKKFQEAVEKVTQHIHGLSGKKDGLVPMFINTHSGLFTHLGVFTLGARADSYYEYLLKQWIQGGKQETQLLEDYVEAIEGVRTHLLRHSEPSKLTFVGELAHGRFSAKMDHLVCFLPGTLALGVYHGLPASHMELAQELMETCYQMNRQMETGLSPEIVHFNLYPQPGRRDVEVKPADRHNLLRPETVESLFYLYRVTGDRKYQDWGWEILQSFSRFTRVPSGGYSSINNVQDPQKPEPRDKMESFFLGETLKYLFLLFSDDPNLLSLDAYVFNTEAHPLPIWTPA
Regarding B1, the degradation_or_half_life result is on record as “no change”.

(Values after publication PMC3154878.)
